# Measurements published in publication PMC3468084.
# Tests used:
# KpDnaB helicase [1] = molecular target: T1, KpDnaB helicase (Klebsiella pneumoniae, UniProt A6TGW0 1-471); test: EMSA; no flavonol; apparent Kd; 20 mM HEPES pH 7.0, 100 mM NaCl, 25 C, 30 min, 1.7 nM dT30, no Mg2+ or nucleotide stated; native 8% PAGE in TBE at 4 C
# KpDnaB helicase [2] = molecular target: T1, KpDnaB helicase; test: EMSA; 16.7 uM galangin; apparent Kd; 20 mM HEPES pH 7.0, 100 mM NaCl, 25 C, 30 min, 1.7 nM dT30, no Mg2+ or nucleotide stated; native 8% PAGE in TBE at 4 C
# KpDnaB helicase [3] = molecular target: T1, KpDnaB helicase; test: EMSA; 16.7 uM myricetin; apparent Kd; 20 mM HEPES pH 7.0, 100 mM NaCl, 25 C, 30 min, 1.7 nM dT30, no Mg2+ or nucleotide stated; native 8% PAGE in TBE at 4 C
# KpDnaB helicase [4] = molecular target: T1, KpDnaB helicase; test: EMSA; 16.7 uM quercetin; apparent Kd; 20 mM HEPES pH 7.0, 100 mM NaCl, 25 C, 30 min, 1.7 nM dT30, no Mg2+ or nucleotide stated; native 8% PAGE in TBE at 4 C
# KpDnaB helicase [5] = molecular target: T1, KpDnaB helicase; test: EMSA; 16.7 uM kaempferol; apparent Kd; 20 mM HEPES pH 7.0, 100 mM NaCl, 25 C, 30 min, 1.7 nM dT30, no Mg2+ or nucleotide stated; native 8% PAGE in TBE at 4 C
binder,measurement,setting,value
TTTTTTTTTTTTTTTTTTTTTTTTTTTTTT (ssDNA) [dT30],Kd,KpDnaB helicase [1],970 ± 70 nM
same,Kd,KpDnaB helicase [2],1030 ± 60 nM
same,Kd,KpDnaB helicase [3],1110 ± 50 nM
same,Kd,KpDnaB helicase [4],1030 ± 70 nM
same,Kd,KpDnaB helicase [5],1100 ± 50 nM
